Assay [1] has as its target His-tagged human recombinant corneodesmosin (His-CDSN) (human) (UniProt Q15517). Nature of the assay: SPR.
In assay [2] the target is T1, His-tagged human recombinant corneodesmosin (His-CDSN) (human, UniProt Q15517 33-529).
T1 sequence (looked up): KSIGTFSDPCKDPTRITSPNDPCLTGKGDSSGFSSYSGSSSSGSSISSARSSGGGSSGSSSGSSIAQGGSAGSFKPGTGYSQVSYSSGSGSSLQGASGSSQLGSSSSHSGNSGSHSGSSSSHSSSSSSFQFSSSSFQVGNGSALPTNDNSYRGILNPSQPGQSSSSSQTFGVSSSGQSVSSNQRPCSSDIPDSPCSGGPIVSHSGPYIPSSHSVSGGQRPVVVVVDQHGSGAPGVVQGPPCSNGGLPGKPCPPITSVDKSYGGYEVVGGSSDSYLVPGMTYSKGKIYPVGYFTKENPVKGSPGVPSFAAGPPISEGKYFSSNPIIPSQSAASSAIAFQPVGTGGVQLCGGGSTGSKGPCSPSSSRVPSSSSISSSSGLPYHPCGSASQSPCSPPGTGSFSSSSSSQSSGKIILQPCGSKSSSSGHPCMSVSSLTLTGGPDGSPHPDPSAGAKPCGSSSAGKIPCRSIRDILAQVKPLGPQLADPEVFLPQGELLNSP
Nature of the assay: SPR. A general note: Surface plasmon resonance follows binding to a sensor surface in real time, without labels.

As usually defined, the Kd is the constant that tells how readily two partners part at equilibrium. As to “recombinant FnBPB N2N3 subdomains with the sequence of the AD08 protein (rFnBPBCC1N2N3) (domain or fragment)”, in assay [1], the Kd turned out to be 49.1 µM.

B1: recombinant ClfB N2N3 subdomains with the sequence of the AD08 protein (rClfBCC1N2N3) (domain or fragment)
chain: AEPVVNAADAKGTNVNDKVTAKDFQLEKTTFDPNQSGNTFMAANFTVTGQVKSGDYFTAKLPDSVTGNGDVDYSNSNNTMPIADIVNDKNEVVAKATYDILTKTYTFVFTDYVNDKQNINGKFSLPLFTDRAKAPKSGTYDANINIADEMFNNKITYNYSSPIAGIDKPNGANISSQIIGVDTASGQNTYKQTVFVNPKQRVLGNTWVYIKGYQDKIEESSGKVSATDTKLRIFEVNDTSKLSDSYYADPNDSNLKEVTDQFKDKITYKYQNVASINFGDINKTYVVLVEGHYDKTGKNLKTQVIQENVDPATGKDYSIFGWNNENVVRYGGGSADGDSAVN
For the molecule B1, in assay [2], the Kd was determined as 44.6 µM.

(Values after PMC7817190 (Proceedings of the National Academy of Sciences of the …, 2020).)
